Target: T1, endogenous Asc of mouse macrophages (mouse (endogenous in BMDM)), Q9EPB4
T1 chain: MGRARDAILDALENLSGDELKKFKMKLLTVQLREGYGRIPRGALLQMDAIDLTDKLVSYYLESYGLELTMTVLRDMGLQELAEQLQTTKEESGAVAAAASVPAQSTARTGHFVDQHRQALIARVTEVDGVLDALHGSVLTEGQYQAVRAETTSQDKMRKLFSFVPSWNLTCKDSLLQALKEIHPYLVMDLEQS
Experiment: cross-linking; insoluble fraction (pellet) of BMDM lysates cross-linked with 2 mM disuccinimidyl suberate for 30 min, immunoblot with anti-Asc; cells infected with WT Shigella or Salmonella, T3SS-deficient or fliA mutants, nucleofected with MxiI, or with siRNA to Naip2 or Naip5
Details: remark: other sources report otherwise

B1: endogenous Asc of mouse macrophages, Q9EPB4 1-193 (natural protein)
chain: MGRARDAILDALENLSGDELKKFKMKLLTVQLREGYGRIPRGALLQMDAIDLTDKLVSYYLESYGLELTMTVLRDMGLQELAEQLQTTKEESGAVAAAASVPAQSTARTGHFVDQHRQALIARVTEVDGVLDALHGSVLTEGQYQAVRAETTSQDKMRKLFSFVPSWNLTCKDSLLQALKEIHPYLVMDLEQS
stoichiometry N: 2

Reference: publication PMC3916413
